Test results taken from PMC3965363 (Neuropharmacology, 2014).
Where two headings read alike, the source gives them in different places.

What was measured:
[1] = system: brain of C57BL/6 mice; assay: Brain clearance index; assay type: in vivo, mouse
[2] = Integrity of 125I-Aβ40 in media without cells; assay type: physicochemical; settings: 0.1 nM 125I-Aβ40 in media without cells
[3] = system: bEnd3 cells
[4] = system: hCMEC/D3 cells
[5] = system: bEnd3 cells; remark: listed apart in the source
[6] = system: hCMEC/D3 cells; remark: listed apart in the source
[7] = system: bEnd3 cells; remark: listed apart in the source
[8] = system: bEnd3 cells; assay: Aβ40 degradation in bEnd3 cells with IDE or neprilysin inhibitor; assay type: cell-based, mouse; settings: bEnd3, thiorphan 2 mM
[9] = system: hCMEC/D3 cells; assay: Aβ40 degradation in hCMEC/D3 cells with IDE or neprilysin inhibitor; assay type: cell-based, human; settings: hCMEC/D3, thiorphan 2 mM
[10] = system: human brain; settings: ref Mawuenyega et al., 2010, cited from earlier work
[11] = system: mouse brain; settings: ref Barten et al., 2005, Cirrito et al., 2003, cited from earlier work
[12] = system: brain; settings: ref Shibata et al., 2000; cited from earlier work
[13] = system: BBB; settings: ref Ito et al., 2006; cited from earlier work

**Q.** Which results are given for “125I-Aβ40: radioiodinated amyloid-β 40 peptide tracer (PerkinElmer)”?
**A.** BCITotal(%), total brain clearance (BBB efflux + degradation) ([1]; mouse): 58.7±3.9%; BCIBBB(%), clearance across BBB ([1]; mouse, in vivo): 35.6±3.3%; BCIDegradation(%), clearance by brain degradation ([1]; mouse, in vivo): 23.1±2.3%; clearance across BBB as share of BCITotal(%) ([1]; mouse, in vivo): 62%; dimer or higher oligomer formation ([2]; 12 h, 16% bis-tris gel electrophoresis): absence of dimers or higher oligomer formation; dissociation of 125I from Aβ40 ([2]; investigated time points): insignificant dissociation; effect of RAGE inhibition on 125I-Aβ40 degradation ([3]; bEnd3, RAGE-IgG 5 µg/ml, 0.1 nM, 15 min, P>0.05): not altered; effect of RAGE inhibition on 125I-Aβ40 degradation ([4]; hCMEC/D3, RAGE-IgG 5 µg/ml, 0.1 nM, 12 h, P>0.05): not altered; effect of inhibition of RAGE, P-gp, or LRP1 on degradation during transport ([5]; bEnd3, either direction, RAGE-IgG 5 µg/ml, valspodar 5 µM or RAP 1 µM, 30 min): did not affect; effect of inhibition of P-gp on A→B transport ([5]; bEnd3, valspodar 5 µM pre- and co-incubated, 0.1 nM, 30 min): no alteration; effect of inhibition of RAGE, P-gp, or LRP1 on degradation during transport ([6]; hCMEC/D3, either direction, RAGE-IgG 5 µg/ml, valspodar 5 µM or RAP 1 µM, 12 h): did not affect; Intrinsic uptake (Vmax/Km) [7]: 2848 nL/min

**Q.** Which “effect of neprilysin inhibition on Aβ40 degradation” value [8] does the source give for O=C(O)CNC(=O)C(CS)Cc1ccccc1 (centres unmarked) [thiorphan] here?
**A.** did not show any significant effect

**Q.** And the “effect of neprilysin inhibition on Aβ40 degradation” value [9]?
**A.** did not show any significant effect

**Q.** Which “effect of P-gp inhibition on brain degradation” value ([1]; valspodar 40 µM intracerebral, 30 min, NS in Figure 1C) does the source give for “Aβ40: amyloid-β peptide Aβ40, by-product of proteolytic degradation of amyloid precursor protein” here?
**A.** without altering

**Q.** And the “Aβ40 cleared from the brain per hour” value ([10]; cognitively normal individuals)?
**A.** about 7%

**Q.** And the “corresponding half-life of Aβ40 in brain” value ([10]; cognitively normal individuals)?
**A.** ~ 10 h

**Q.** And the “Aβ40 cleared from the brain per hour” value ([10]; patients with AD)?
**A.** 5.2%

**Q.** And the “corresponding half-life of Aβ40 in brain” value ([10]; patients with AD)?
**A.** ~ 13 h

**Q.** What about the “half-life of human Aβ40 in mouse brain” value ([11]; PDAPP mice) of the same molecule?
**A.** 2 h

**Q.** And the “half-life of human Aβ40 in mouse brain” value ([11]; Tg2576 mice)?
**A.** 0.63 h

**Q.** And the “contribution of CSF flow to overall brain Aβ40 clearance” value [12]?
**A.** 10–15%

**Q.** For “Aβ42: amyloid-β peptide Aβ42, prone to rapid aggregation”, which “clearance across the BBB compared to Aβ40” value [13] is on record?
**A.** slower

**Q.** With valspodar as the molecule, how does the “change in 125I-Aβ40 accumulation (P-gp inhibition)” value ([3]; bEnd3, valspodar 5 µM pre- and co-incubated, 0.1 nM 125I-Aβ40, 15 min, P>0.05) read?
**A.** did not cause any significant change

**Q.** What about the “effect of P-gp inhibition on 125I-Aβ40 degradation” value ([3]; bEnd3, valspodar 5 µM, 0.1 nM 125I-Aβ40, 15 min, P>0.05) of the same molecule?
**A.** no effect

**Q.** What about the “effect of P-gp inhibition on 125I-Aβ40 degradation” value ([4]; hCMEC/D3, valspodar 5 µM, 0.1 nM 125I-Aβ40, 12 h, P>0.05) of the same molecule?
**A.** no effect

B1: RAP: an LRP1 inhibitor (receptor-associated protein; Oxford Biomedical Research) (protein, UniProt P30533 35-357, looked up)
Alpha-2-macroglobulin …: YSREKNQPKPSPKRESGEEFRMEKLNQLWEKAQRLHLPPVRLAELHADLKIQERDELAWKKLKLDGLDEDGEKEARLIRNLNVILAKYGLDGKKDARQVTSNSLSGTQEDGLDDPRLEKLWHKAKTSGKFSGEELDKLWREFLHHKEKVHEYNVLLETLSRTEEIHENVISPSDLSDIKGSVLHSRHTELKEKLRSINQGLDRLRRVSHQGYSTEAEFEEPRVIDLWDLAQSANLTDKELEAFREELKHFEAKIEKHNHYQKQLEIAHEKLRHAESVGDGERVSRSREKHALLEGRTKELGYTVKKHLQDLSGRISRARHNEL
**Q.** Which results are given for B1?
**A.** decrease of cellular level of intact 125I-Aβ40 (LRP1 inhibition) ([3]; bEnd3, RAP 1 µM pre- and co-incubated, 0.1 nM 125I-Aβ40, 15 min, P<0.001): 67%; decrease of 125I-Aβ40 degradation (LRP1 inhibition) ([3]; bEnd3, RAP 1 µM, 0.1 nM 125I-Aβ40, 15 min, P<0.01): 24%; decrease of cellular level of intact 125I-Aβ40 (LRP1 inhibition) ([4]; hCMEC/D3, RAP 1 µM pre- and co-incubated, 0.1 nM 125I-Aβ40, 12 h, P<0.001): 42%; decrease of 125I-Aβ40 degradation (LRP1 inhibition) ([4]; hCMEC/D3, RAP 1 µM, 0.1 nM 125I-Aβ40, 12 h, P<0.01): 28%; decrease of intact 125I-Aβ40 transport B→A (LRP1 inhibition) ([5]; bEnd3, RAP 1 µM pre- and co-incubated, 0.1 nM 125I-Aβ40, 30 min, P<0.01): 42%; decrease of intact 125I-Aβ40 transport B→A (LRP1 inhibition) ([6]; hCMEC/D3, RAP 1 µM pre- and co-incubated, 0.1 nM 125I-Aβ40, 12 h, P<0.01): 42%
